In the supplement of paper PMC10065799, “High-throughput profiling of sequence recognition by tyrosine kinases and SH2 domains using bacterial peptide display” (eLife, 2023):

What was measured:
FGFR3 = FGFR3 (UniProt P22607); assay: phosphorylation enrichment, bacterial display (enrichment ratio); higher = better substrate or ligand; peptides without Tyr show the background
Hck = Hck (UniProt P08631); assay: as above
c-Abl (mouse) = assay: as above
FGFR1 = FGFR1 (UniProt P11362); assay: as above
Chain of FGFR1 (P11362 whole entry, looked up): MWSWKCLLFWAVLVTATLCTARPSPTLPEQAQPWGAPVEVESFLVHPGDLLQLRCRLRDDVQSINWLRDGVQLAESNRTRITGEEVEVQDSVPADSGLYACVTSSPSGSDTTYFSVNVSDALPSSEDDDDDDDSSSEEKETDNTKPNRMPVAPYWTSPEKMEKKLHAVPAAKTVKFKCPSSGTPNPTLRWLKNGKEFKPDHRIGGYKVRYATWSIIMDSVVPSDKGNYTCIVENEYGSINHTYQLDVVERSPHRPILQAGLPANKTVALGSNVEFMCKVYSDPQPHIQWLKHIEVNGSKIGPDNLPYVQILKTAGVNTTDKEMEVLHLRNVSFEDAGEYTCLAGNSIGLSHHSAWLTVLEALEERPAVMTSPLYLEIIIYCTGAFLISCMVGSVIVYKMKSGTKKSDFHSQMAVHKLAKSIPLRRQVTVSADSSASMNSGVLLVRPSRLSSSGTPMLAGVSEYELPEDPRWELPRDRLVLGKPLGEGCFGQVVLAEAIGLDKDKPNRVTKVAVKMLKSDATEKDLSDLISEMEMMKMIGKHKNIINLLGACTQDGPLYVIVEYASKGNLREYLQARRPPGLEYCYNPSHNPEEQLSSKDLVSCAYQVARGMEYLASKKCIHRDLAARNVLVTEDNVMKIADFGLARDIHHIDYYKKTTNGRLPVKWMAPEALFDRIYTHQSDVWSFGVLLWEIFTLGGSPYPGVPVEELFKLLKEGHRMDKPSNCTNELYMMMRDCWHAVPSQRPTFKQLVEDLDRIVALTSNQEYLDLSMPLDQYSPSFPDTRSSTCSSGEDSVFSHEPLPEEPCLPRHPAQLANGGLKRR

Fer (mouse) = assay: as above
EPHB2 = EPHB2 (UniProt P29323); assay: as above
Jak2 = Jak2 (UniProt O60674); assay: as above
Fes = Fes (UniProt P07332); assay: as above
Chain of Fes (P07332 whole entry, looked up): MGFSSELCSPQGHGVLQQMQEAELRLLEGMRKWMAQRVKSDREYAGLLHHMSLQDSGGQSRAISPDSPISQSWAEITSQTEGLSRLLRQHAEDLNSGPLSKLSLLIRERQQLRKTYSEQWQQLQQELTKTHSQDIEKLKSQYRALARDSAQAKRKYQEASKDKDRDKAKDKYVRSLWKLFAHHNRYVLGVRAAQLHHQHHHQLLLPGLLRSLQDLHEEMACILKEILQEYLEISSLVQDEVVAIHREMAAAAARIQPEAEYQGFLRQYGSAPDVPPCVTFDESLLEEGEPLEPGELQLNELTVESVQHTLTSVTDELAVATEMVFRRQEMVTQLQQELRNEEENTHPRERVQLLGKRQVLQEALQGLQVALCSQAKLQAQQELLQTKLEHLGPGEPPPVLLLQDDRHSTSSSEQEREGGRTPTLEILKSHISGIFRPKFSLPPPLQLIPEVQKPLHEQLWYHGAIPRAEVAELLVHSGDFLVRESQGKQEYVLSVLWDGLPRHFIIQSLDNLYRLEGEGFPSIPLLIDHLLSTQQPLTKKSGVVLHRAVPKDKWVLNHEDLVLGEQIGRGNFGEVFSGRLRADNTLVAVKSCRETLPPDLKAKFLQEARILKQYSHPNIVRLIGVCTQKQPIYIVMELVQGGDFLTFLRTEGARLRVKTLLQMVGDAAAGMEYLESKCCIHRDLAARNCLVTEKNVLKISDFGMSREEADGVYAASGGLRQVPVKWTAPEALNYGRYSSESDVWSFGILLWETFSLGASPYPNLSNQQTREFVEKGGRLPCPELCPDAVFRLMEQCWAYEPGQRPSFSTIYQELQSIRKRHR

EPHB1 = EPHB1 (UniProt P54762); assay: as above
Chain of EPHB1 (P54762 whole entry, looked up): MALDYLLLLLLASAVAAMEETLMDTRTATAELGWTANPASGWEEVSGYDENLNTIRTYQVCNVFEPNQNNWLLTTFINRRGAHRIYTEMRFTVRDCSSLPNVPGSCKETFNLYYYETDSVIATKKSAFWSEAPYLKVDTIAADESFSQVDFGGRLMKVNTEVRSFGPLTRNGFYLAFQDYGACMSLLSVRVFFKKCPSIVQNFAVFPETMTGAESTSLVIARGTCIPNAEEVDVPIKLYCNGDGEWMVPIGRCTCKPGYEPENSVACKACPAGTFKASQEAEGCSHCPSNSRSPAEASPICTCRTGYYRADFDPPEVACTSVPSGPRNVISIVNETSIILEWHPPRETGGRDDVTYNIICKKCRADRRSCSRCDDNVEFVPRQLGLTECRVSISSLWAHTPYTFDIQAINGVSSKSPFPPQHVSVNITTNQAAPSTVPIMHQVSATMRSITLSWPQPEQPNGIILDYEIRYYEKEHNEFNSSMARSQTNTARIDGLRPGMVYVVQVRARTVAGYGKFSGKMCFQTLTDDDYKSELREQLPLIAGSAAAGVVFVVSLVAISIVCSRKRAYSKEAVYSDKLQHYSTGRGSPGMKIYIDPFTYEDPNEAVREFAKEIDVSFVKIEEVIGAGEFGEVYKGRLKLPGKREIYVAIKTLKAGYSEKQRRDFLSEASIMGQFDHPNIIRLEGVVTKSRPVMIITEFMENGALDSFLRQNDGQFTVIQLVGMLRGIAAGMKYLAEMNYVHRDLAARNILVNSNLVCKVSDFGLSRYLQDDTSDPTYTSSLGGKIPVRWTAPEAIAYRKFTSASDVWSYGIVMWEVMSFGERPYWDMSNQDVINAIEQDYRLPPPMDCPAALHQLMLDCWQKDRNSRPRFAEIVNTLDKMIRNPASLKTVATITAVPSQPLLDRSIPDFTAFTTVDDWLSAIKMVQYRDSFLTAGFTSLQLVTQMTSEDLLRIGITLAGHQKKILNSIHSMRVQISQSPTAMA

AncSZ = assay: as above
c-Src = assay: as above
MERTK = MERTK (UniProt Q12866); assay: as above
Chain of MERTK (Q12866 whole entry, looked up): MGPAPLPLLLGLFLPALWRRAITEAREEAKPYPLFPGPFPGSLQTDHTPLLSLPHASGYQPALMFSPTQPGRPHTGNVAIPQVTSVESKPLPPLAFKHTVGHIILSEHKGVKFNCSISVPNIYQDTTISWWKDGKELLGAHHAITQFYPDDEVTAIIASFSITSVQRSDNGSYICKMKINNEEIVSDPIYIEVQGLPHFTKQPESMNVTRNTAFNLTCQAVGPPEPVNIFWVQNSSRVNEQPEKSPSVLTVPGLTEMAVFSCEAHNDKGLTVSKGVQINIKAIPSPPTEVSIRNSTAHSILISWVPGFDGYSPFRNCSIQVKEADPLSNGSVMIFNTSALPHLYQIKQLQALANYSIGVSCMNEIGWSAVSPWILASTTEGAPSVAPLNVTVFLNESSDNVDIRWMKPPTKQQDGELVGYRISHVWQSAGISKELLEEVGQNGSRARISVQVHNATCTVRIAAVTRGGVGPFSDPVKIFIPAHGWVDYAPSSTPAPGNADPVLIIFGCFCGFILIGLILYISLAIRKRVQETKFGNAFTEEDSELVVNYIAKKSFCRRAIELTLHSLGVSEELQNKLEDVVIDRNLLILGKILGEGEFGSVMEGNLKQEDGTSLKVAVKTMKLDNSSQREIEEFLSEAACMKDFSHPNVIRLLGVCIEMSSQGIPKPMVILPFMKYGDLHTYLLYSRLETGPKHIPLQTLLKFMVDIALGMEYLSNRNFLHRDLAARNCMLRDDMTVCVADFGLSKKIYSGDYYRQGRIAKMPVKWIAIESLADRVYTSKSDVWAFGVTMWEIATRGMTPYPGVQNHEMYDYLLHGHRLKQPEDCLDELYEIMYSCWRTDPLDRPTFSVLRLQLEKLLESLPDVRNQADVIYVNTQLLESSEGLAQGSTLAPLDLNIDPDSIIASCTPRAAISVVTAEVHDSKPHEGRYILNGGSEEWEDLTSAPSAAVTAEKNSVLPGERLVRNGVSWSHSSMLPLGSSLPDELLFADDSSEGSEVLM

Fyn = Fyn (UniProt P06241); assay: as above
SHP2-C SH2 = assay: SH2 binding enrichment of the phosphorylated peptide, bacterial display (enrichment ratio); higher = better substrate or ligand; peptides without Tyr show the background
c-Src SH2 = assay: as above
Grb2 SH2 = Grb2 SH2 (UniProt P62993); assay: as above
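Throughout, for SH2 binding enrichment of the phosphorylated peptide, bacterial display: peptide library displayed on the E. coli surface as eCPX fusions, selected cells deep-sequenced, score is each peptide's frequency after selection divided by its frequency in the input.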
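Throughout, for phosphorylation enrichment, bacterial display: 11-residue human phosphosite peptides and single-mutation variants displayed on the E. coli surface, counted by deep sequencing, each peptide's frequency after selection divided by its frequency in the unselected input library; frequency after pTyr selection over input frequency; kinase dosed for 20-30% of maximal phosphorylation in three min.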

Chain of FGFR3 (P22607 whole entry, looked up): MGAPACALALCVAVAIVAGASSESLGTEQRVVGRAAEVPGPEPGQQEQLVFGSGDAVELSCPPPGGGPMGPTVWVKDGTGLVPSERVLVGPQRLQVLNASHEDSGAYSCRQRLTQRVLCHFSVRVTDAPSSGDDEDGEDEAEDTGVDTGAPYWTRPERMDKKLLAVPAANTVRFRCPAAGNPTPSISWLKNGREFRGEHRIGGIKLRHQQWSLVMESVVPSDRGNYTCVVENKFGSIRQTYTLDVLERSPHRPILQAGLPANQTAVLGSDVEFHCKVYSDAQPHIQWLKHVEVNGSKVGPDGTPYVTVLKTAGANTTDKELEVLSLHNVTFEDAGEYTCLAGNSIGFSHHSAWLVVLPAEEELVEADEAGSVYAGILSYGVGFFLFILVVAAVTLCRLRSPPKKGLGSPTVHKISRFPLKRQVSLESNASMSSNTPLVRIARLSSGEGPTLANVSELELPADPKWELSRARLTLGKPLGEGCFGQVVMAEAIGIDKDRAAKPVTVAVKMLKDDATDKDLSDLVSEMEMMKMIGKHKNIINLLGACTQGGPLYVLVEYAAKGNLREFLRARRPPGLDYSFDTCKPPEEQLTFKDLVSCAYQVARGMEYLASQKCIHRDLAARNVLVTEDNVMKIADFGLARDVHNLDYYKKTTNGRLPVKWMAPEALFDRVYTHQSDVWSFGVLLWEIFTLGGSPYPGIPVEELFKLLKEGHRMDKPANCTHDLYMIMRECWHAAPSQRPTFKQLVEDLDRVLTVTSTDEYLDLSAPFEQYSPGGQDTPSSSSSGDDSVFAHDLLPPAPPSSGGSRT
Chain of Hck (P08631 whole entry, looked up): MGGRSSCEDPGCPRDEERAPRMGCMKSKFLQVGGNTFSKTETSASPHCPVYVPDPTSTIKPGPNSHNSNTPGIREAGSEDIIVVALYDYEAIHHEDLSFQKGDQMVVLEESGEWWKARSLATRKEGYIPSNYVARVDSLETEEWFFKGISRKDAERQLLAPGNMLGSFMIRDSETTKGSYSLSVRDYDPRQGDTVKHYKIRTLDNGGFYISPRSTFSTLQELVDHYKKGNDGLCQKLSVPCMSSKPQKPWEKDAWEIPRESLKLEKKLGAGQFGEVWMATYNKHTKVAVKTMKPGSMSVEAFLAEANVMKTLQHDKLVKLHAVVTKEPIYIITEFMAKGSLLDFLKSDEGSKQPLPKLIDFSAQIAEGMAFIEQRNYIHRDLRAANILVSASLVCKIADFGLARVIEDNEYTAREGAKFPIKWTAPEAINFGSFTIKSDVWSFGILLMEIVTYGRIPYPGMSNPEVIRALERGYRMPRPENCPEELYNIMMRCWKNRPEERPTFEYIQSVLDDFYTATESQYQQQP

| SH2 binding enrichment (SHP2-C SH2) | SH2 binding enrichment (c-Src SH2) | SH2 binding enrichment (Grb2 SH2) | Sequence | phosphorylation enrichment (FGFR3) | phosphorylation enrichment (Hck) | phosphorylation enrichment (c-Abl (mouse)) | phosphorylation enrichment (FGFR1) | phosphorylation enrichment (Fer (mouse)) | phosphorylation enrichment (EPHB2) | phosphorylation enrichment (Jak2) | phosphorylation enrichment (Fes) | phosphorylation enrichment (EPHB1) | phosphorylation enrichment (AncSZ) | phosphorylation enrichment (c-Src) | phosphorylation enrichment (MERTK) | phosphorylation enrichment (Fyn) |
| --- | --- | --- | --- | --- | --- | --- | --- | --- | --- | --- | --- | --- | --- | --- | --- | --- |
| 0.743 | 0.439 | 0.827 | MLEAPYVDRNS [F10_Y384_V382A] | 0.557 | 0.497 | 0.689 | 0.455 | 0.391 | 0.451 | 0.739 | 0.954 | 0.452 | 0.747 | 0.435 | 0.343 | 0.465 |
| 1.84 | 1.57 | 1.82 | LLVVLCKFRCF [PSEN1_Y154_Y154C_YF] | 0.999 | 0.887 | 1.23 | 0.648 | 0.722 | 0.694 | 1.82 | 1.73 | 0.619 | 1.4 | 1.48 | 0.984 | 0.731 |
| 0.44 | 5.46 | 0.845 | GIMEEYQLPYY [BMPR1A_Y453_V450M] | 1.57 | 0.998 | 1.25 | 2.23 | 0.942 | 0.795 | 1.28 | 1.4 | 0.748 | 5.83 | 3.76 | 0.398 | 1.4 |
| 0.872 | 2.29 | 1.25 | RHLREYQDLLN [DES_Y388] | 0.641 | 0.464 | 0.888 | 0.61 | 0.533 | 1.12 | 0.807 | 1.19 | 0.621 | 0.93 | 0.41 | 0.491 | 0.483 |
| 0.652 | 0.797 | 0.825 | CGADSYEMEED [EGFR_Y316] | 0.899 | 0.705 | 0.827 | 0.536 | 0.533 | 0.72 | 1.08 | 1.27 | 0.685 | 1.57 | 0.483 | 0.549 | 0.534 |
| 0.641 | 3.46 | 0.966 | PSAELYSYALP [PDGFRB_Y716_N718Y] | 10 | 8.81 | 1.55 | 10.6 | 25.8 | 21.2 | 0.947 | 1.92 | 18 | 3.71 | 5.38 | 16.8 | 6.1 |
| 0.678 | 0.406 | 0.782 | VHNLDYFKKTT [FGFR3_Y647_YF] | 0.617 | 0.46 | 0.573 | 0.437 | 0.428 | 0.425 | 0.857 | 0.91 | 0.512 | 0.806 | 0.523 | 0.505 | 0.471 |
| 0.657 | 0.496 | 0.756 | FSPFDYQPCLA [TNS1_Y798_YF] | 0.978 | 0.66 | 1.04 | 1.01 | 0.643 | 0.715 | 1.21 | 1.44 | 0.775 | 1.39 | 0.57 | 0.538 | 0.589 |
| 0.581 | 0.388 | 0.74 | DYYDLYGGKKF [PTPN11_Y66_E69K] | 9.68 | 5.9 | 0.698 | 11.5 | 0.421 | 1.22 | 0.971 | 0.825 | 1.89 | 1.31 | 3.05 | 1.21 | 3.27 |
| 0.463 | 0.556 | 0.932 | NVVNEYSSELE [FGB_Y172] | 0.769 | 0.628 | 0.717 | 0.565 | 0.515 | 0.627 | 0.99 | 1.25 | 0.611 | 1.19 | 0.482 | 0.422 | 0.515 |
| 0.671 | 0.452 | 0.883 | EVKEAYMGSVL [ACAT1_Y90_N93S] | 0.527 | 0.447 | 0.744 | 0.407 | 0.398 | 0.532 | 0.83 | 0.995 | 0.485 | 0.841 | 0.592 | 0.463 | 0.489 |
| 0.891 | 0.77 | 1.12 | SGRPGYCLGTR [SCO1_Y60] | 0.563 | 0.426 | 0.618 | 0.406 | 0.407 | 0.51 | 0.58 | 0.874 | 0.488 | 0.735 | 0.41 | 0.462 | 0.474 |
| 0.671 | 0.349 | 0.801 | GIVEDYRPPLF [ACVRL1_Y421_F425L_YF] | 0.722 | 0.343 | 0.511 | 0.434 | 0.406 | 0.418 | 0.626 | 0.904 | 0.442 | 0.841 | 0.373 | 0.377 | 0.458 |
| 0.842 | 0.619 | 0.997 | TNLVPYPRIHF [TUBA1A_Y262] | 0.471 | 0.369 | 0.781 | 0.445 | 0.449 | 0.422 | 0.624 | 0.655 | 1.18 | 0.501 | 0.392 | 0.413 | 0.378 |
| 0.697 | 0.442 | 0.877 | SLMNQYVNKKF [RAB7A_Y28] | 0.396 | 0.427 | 0.447 | 0.381 | 0.398 | 0.373 | 0.44 | 0.579 | 0.291 | 0.474 | 0.342 | 0.315 | 0.383 |
| 1.86 | 1.89 | 1.55 | PRIHSYRGHLW [VHL_Y112_R107P] | 0.579 | 0.713 | 1.09 | 0.771 | 0.722 | 0.451 | 0.628 | 1.08 | 1.56 | 1.01 | 0.748 | 0.655 | 0.611 |
